These results are taken from patent US20140155325A1 (Janssen / Centocor, published 2014).

Assay [1] has as its target T1, human EGFR (epidermal growth factor receptor) on cells (human, UniProt P00533 25-1210).
T1 construct: Endogenous EGFR of human tumor cell lines; also called HER-1; Erb-B1
The assay is described as follows: A431 cell binding, anti-His-Alexa488.

Assay [2] addresses T1, human EGFR (epidermal growth factor …). Kind of assay: cell-based or functional assay.
Assay [3] shares this target. Kind of assay: cell-based or functional assay. This is another data set of the same source.
The target is the same in assay [4]. The assay is described as follows: cell-based or functional assay. This is another data set of the same source.
Assay [5] has the same target. The assay is described as follows: cell-based or functional assay. The source holds these as a separate data set.
Assay [6] has as its target T2, recombinant human extracellular domain of EGFR fused to an IgG1 Fc (human, UniProt P00533 25-645).
T2 construct: Bought from R&D Systems; captured on anti-human Fc IgG in the SPR assays; also called EGFR-Fc; recombinant EGFR extracellular domain; not shown: IgG1 Fc of the bought fusion protein (R&D Systems)
Kind of assay: SPR (ProteOn), EGFR-Fc captured by anti-human Fc. The method, then:
Select EGFR-binding FN3 domains were screened to identify those with slow off-rates (koff) in binding to EGFR-Fc on a ProteOn XPR-36 instrument (Bio-Rad) to facilitate selection of high affinity binders. Goat anti-human Fc IgG (R&D systems), at a concentration of 5 μg/mL, was directly immobilized via amine coupling (at pH 5.0) on all 6 ligand channels in horizontal orientation on the chip with a flow rate of 30 μL/min in PBS containing 0.005% Tween-20. The immobilization densities averaged about 1500 Response Units (RU) with less than 5% variation among different channels. EGFR-Fc was captured on the anti-human Fc IgG surface to a density around 600 RU in vertical ligand orientation. All tested FN3 domains were normalized to a concentration of 1 μM and tested for their binding in horizontal orientation. All 6 analyte channels were used for the FN3 domains to maximize screening throughput. The dissociation phase was monitored for 10 minutes at a flow rate of 100 μL/min. The inter-spot binding signals were used as references to monitor non-specific binding between analytes and the immobilized IgG surface, and were subtracted from all binding responses. […]
Binding affinity of selected EGFR-binding FN3 domains to recombinant EGFR extracellular domain was further characterized by surface Plasmon resonance methods using a Proteon Instrument (BioRad). […]

For assay [7], the target named is T1, human EGFR (epidermal growth factor …). Kind of assay: A431 cell EGF competition (biotinylated EGF).
For assay [8], the target named is human c-Met (hepatocyte growth factor receptor) on cells (human, UniProt P08581 25-1390). The assay is described as follows: cell-based or functional assay.
For assay [9], the target named is recombinant human c-Met Fc chimera (human) (UniProt P08581). Kind of assay: HGF competition (biotinylated HGF on coated c-Met-Fc).
Assay [10] has the same target. Kind of assay: SPR (ProteOn), c-Met-Fc captured by anti-human Fc.
For assay [11], the target named is human EGFR (epidermal growth factor receptor) on cells (human) (UniProt P00533).
The target is the same in assay [12]. The assay is described as follows: cell-based or functional assay.
The target is the same in assay [13]. The source holds these as a separate data set.
For assay [14] the target is unchanged. The source holds these as a separate data set.
Assay [15] has as its target recombinant human c-Met Fc chimera (human) (UniProt P08581). The assay is described as follows: SPR (ProteOn), protocol of Example 3.

Bounds are passed on as bounds.

Broadly, the EC50 is the concentration at which the effect is half-maximal. A higher EC50 goes with weaker potency. In general, Kd refers to a measure of binding affinity in units of concentration. A word on the IC50: it is the concentration needed to halve the response being measured.

B1: P54CR4-31 (designed binder)
chain: LPAPKNLVVSEVTEDSLRLSWTAPDAAFDSFLIQYQESEKVGEAINLTVPGSERSYDLTGLKPGTEYTVSIYGVLGSYVFEHDVMLPLSAEFTT
notes: not shown: C-terminal poly-histidine tag
For B1, in assay [1], the concentration giving a half-maximal response (EC50) is more than 20000 nM.

B2: P53A1R5-17 (designed binder, not shown: small tags and cut ends)
chain: LPAPKNLVVSEVTEDSLRLSWADPHGFYDSFLIQYQESEKVGEAINLTVPGSERSYDLTGLKPGTEYTVSIYGVHNVYKDTNMRGLPLSAEFTT
For B2, the “IC50, inhibition of EGF-stimulated EGFR phosphorylation (relative pEGFR, RCLU) in H596 cells, +2.5 ng/mL EGF [+2.5ng/mL EGF), IC50 table]” value in assay [2] came out at 35.4 nM. Further, in [3], the “IC50, inhibition of EGF-stimulated EGFR phosphorylation (relative pEGFR, RCLU) in H292 cells, +50 ng/mL EGF [+50ng/mL EGF), IC50 table]” value came to 151 nM. In [4], the “IC50, inhibition of EGF-stimulated EGFR phosphorylation (relative pEGFR, RCLU) in H441 cells, +10 ng/mL EGF [+10ng/mL EGF), IC50 table]” value was 70.2 nM.

B3: P54AR4-47 (designed binder)
chain: LPAPKNLVVSEVTEDSLRLSWWDPFSFYDSFLIQYQESEKVGEAINLTVPGSERSYDLTGLKPGTEYTVSIYGVHNVYKDTNMRGLPLSAEFTT
Take B3: the EC50 in assay [1] came out at 8.6 nM. In addition, in assay [5], the “NCI-H292 Growth IC50” value came out at 44 nM; the “NCI-H322 Growth IC50” value came to 39 nM; the “Phospho-EGFR IC50 (EGF-stimulated, A431 cells)” value worked out at 295 nM. For the same molecule, the Kd in assay [6] came to 2.51 nM. The same molecule displayed an IC50 in [7] of 7.1 nM.

B4: P114AR7P93-H9 (designed binder, not shown: small tags and cut ends)
chain: LPAPKNLVVSRVTEDSARLSWTAPDAAFDSFWIRYFEFLGSGEAIVLTVPGSERSYDLTGLKPGTEYVVQIIGVKGGHISLPLSAIFTT
For B4, the “IC50, inhibition of HGF-stimulated c-Met phosphorylation (relative pc-Met, RCLU) in H596 cells, +5 ng/mL HGF [+5ng/mL HGF), IC50 table]” value in assay [8] was 80.8 nM. Moreover, the half-maximal inhibitory concentration (IC50) in assay [9] came out at 2.9 nM. Further, the Kd in assay [10] was determined as 3.3 nM.

B5: ECB5 (designed binder, not shown: small tags and cut ends)
chain: MLPAPKNLVVSEVTEDSARLSWADPHGFYDSFLIQYQESEKVGEAIVLTVPGSERSYDLTGLKPGTEYTVSIYGVHNVYKDTNMRGLPLSAIFTTGGGGSGGGGSGGGGSGGGGSMLPAPKNLVVSRVTEDSARLSWTAPDAAFDSFWIRYFEFLGSGEAIVLTVPGSERSYDLTGLKPGTEYVVNIMGVKGGKISPPLSAIFTT
For the molecule B5, the IC50, inhibition of EGF-stimulated EGFR phosphorylation (relative pEGFR, RCLU) in H596 cells, +2.5 ng/mL EGF [+2.5ng/mL EGF), IC50 table] in assay [11] turned out to be 83.2 nM. Moreover, the fold decrease of the IC50 for inhibition of EGFR phosphorylation in NCI-H441 cells against monospecific P53A1R5-17v2 in assay [12] was 30 fold. The same molecule gave an IC50, inhibition of EGF-stimulated EGFR phosphorylation (relative pEGFR, RCLU) in H292 cells, +50 ng/mL EGF [+50ng/mL EGF), IC50 table] in assay [13] of 76.6 nM. This molecule also came in with an IC50, inhibition of EGF-stimulated EGFR phosphorylation (relative pEGFR, RCLU) in H441 cells, +10 ng/mL EGF [+10ng/mL EGF), IC50 table] in [14] of 2.3 nM.

B6: Bispecific Centyrin (83-H9) (designed binder)
chain: MLPAPKNLVVSEVTEDSARLSWDDPWAFYESFLIQYQESEKVGEAIVLTVPGSERSYDLTGLKPGTEYTVSIYGVHNVYKDTNMRGLPLSAIFTTGGGGSGGGGSGGGGSGGGGSMLPAPKNLVVSRVTEDSARLSWTAPDAAFDSFWIRYFEFLGSGEAIVLTVPGSERSYDLTGLKPGTEYVVQIIGVKGGHISLPLSAIFTT
In the case of B6, the “IC50, inhibition of HGF-stimulated c-Met phosphorylation (relative pc-Met, RCLU) in H596 cells, +5 ng/mL HGF [+5ng/mL HGF), IC50 table]” value in assay [8] was determined as 0.0789 nM.

B7: ECB96 (designed binder, not shown: small tags and cut ends)
chain: MLPAPKNLVVSEVTEDSARLSWDDPWAFYESFLIQYQESEKVGEAIVLTVPGSERSYDLTGLKPGTEYTVSIYGVHNVYKDTNIRGLPLSAIFTTAPAPAPAPAPLPAPKNLVVSRVTEDSARLSWTAPDAAFDSFWIRYFEFVSKGDAIVLTVPGSERSYDLTGLKPGTEYVVNILGVKGGSISPPLSAIFTT
As to B7, the Kd in [15] was found to be 22.1 nM.

B8: ECB106 (designed binder, not shown: small tags and cut ends)
chain: MLPAPKNLVVSEVTEDSARLSWDDPHAFYESFLIQYQESEKVGEAIVLTVPGSERSYDLTGLKPGTEYTVSIYGVHNVYKDTNIRGLPLSAIFTTAPAPAPAPAPLPAPKNLVVSRVTEDSARLSWTAPDAAFDSFWIRYFEFLGSGEAIVLTVPGSERSYDLTGLKPGTEYVVNILGVKGGKISPPLSAIFTT
As for B8, the Kd in assay [15] was determined as 5.1 nM.

B9: ECB108 (designed binder, not shown: small tags and cut ends)
chain: MLPAPKNLVVSEVTEDSARLSWDDPHAFYESFLIQYQESEKVGEAIVLTVPGSERSYDLTGLKPGTEYTVSIYGVHNVYKDTNIRGLPLSAIFTTAPAPAPAPAPLPAPKNLVVSRVTEDSARLSWTAPDAAFDSFWIRYFEFVSKGDAIVLTVPGSERSYDLTGLKPGTEYVVNILGVKGGSISPPLSAIFTT
For the molecule B9, the equilibrium dissociation constant (Kd) in [15] was 25.5 nM.

B10: ECB107 (designed binder, not shown: small tags and cut ends)
chain: MLPAPKNLVVSEVTEDSARLSWDDPHAFYESFLIQYQESEKVGEAIVLTVPGSERSYDLTGLKPGTEYTVSIYGVHNVYKDTNIRGLPLSAIFTTAPAPAPAPAPLPAPKNLVVSRVTEDSARLSWTAPDAAFDSFWIRYFEFVGSGEAIVLTVPGSERSYDLTGLKPGTEYVVNILGVKGGSISPPLSAIFTT
With B10, the Kd in assay [15] turned out to be 9 nM.
